Where a chain is given by its changes, count along the chain named.
B1: C6-9L1 (scFv)
chain: QVQLLQSGAELKKPGESLKISCKGSGYSFTSYWIAWVRQMPGKGLEYMGLIYPGDSDTKYSPSFQGQVTISVDKSVSTAYLQWSSLKPSDSAVYFCARHDVGYCSSSNCAKWPEYFQHWGQGTLVTVSSGGGGSGGGGSGGGGSQSVLTQPPSVSGAPGQWVTISCSGSSSNIGNNYVSWYQQLPGTAPKLLIYDNNKRPSGVPDRFSGSQSGTSASLAISGLRSEDEADYYCASWDYTLSGWVFGGGTKLTVLG
B2: C6-12L1 (scFv)
chain: B1 chain with S235A, T239S, L240R
B3: C6VLE (scFv)
chain: QVQLLQSGAELKKPGESLKISCKGSGYSFTSYWIAWVRQMPGKGLEYMGLIYPGDSDTKYSPSFQGQVTISVDKSVSTAYLQWSSLKPSDSAVYFCARHDVGYCSSSNCAKWPEYFQHWGQGTLVTVSSGGGGSGGGGSGGGGSQSVLTQPPSVSAAAGQKVTISCSGSSSSIGRNYVSWNQQLPGTAPKLLIWRNNQRPSGVPDRFSGSKSGTSASLAISGVRSEDEADYYCASWDNSLSGWVFGGGTKLTVLG
B4: C6VLD (scFv)
chain: QVQLLQSGAELKKPGESLKISCKGSGYSFTSYWIAWVRQMPGKGLEYMGLIYPGDSDTKYSPSFQGQVTISVDKSVSTAYLQWSSLKPSDSAVYFCARHDVGYCSSSNCAKWPEYFQHWGQGTLVTVSSGGGGSGGGGSGGGGSQSVLTQPPSVSAAPGQKVTISCSGTNSNIGNNYVSWYQQLPGTAPKLLIYTNDQRPSGVPDRFSGSKSGTSASLAISGLQSEDEADYYCAAWDDSLNGWMFGGGTKLTVLG
B5: C6-B1D6 (scFv)
scFv: QVQLLQSGAELKKPGESLKISCKGSGYSFTSYWIAWVRQMPGKGLEYMGLIYPGDSDTKYSPSFQGQVTISVDKSVSTAYLQWSSLKPSDSAVYFCARHDVGYCTDRTCAKWPEWMYPWGQGTLVTVSSGGGGSGGGGSGGGGSQSVLTQPPSVSAAPGQKVTISCSGSSSNIGNNYVSWYQQLPGTAPKLLIYGHTNRPAGVPDRFSGSKSGTSASLAISGFRSEDEADYYCASWDYTLSGWVFGGGTKLTVLG
notes: C6MH3-B1 with the library D residues of C6MH3-D6
B6: C6-B1D3 (scFv)
chain: B5 scFv with M116L, Y117D, P118N
B7: C6-B1D1 (scFv)
chain: B5 scFv with M116L, Y117H, P118V
B8: C6-B1D5 (scFv)
chain: B5 scFv with Y117Q, P118M
B9: C6-B1D2 (scFv)
chain: B5 scFv with M116L, Y117G, P118V
B10: C6ML3-13 (scFv)
scFv: QVQLLQSGAELKKPGESLKISCKGSGYSFTSYWIAWVRQMPGKGLEYMGLIYPGDSDTKYSPSFQGQVTISVDKSVSTAYLQWSSLKPSDSAVYFCARHDVGYCSSSNCAKWPEYFQHWGQGTLVTVSSGGGGSGGGGSGGGGSQSVLTQPPSVSAAPGQKVTISCSGSSSNIGNNYVSWYQQLPGTAPKLLIYGHTNRPAGVPDRFSGSKSGTSASLAISGFRSEDEADYYCAAWDATLWGWVFGGGTKLTVLG
notes: C6.5 with this VL CDR3; C-terminal myc and His6 tags
B11: C6ML3-7 (scFv)
scFv: B10 scFv with A238Y, T239A, L240V, W241S
notes: as for B10
B12: C6ML3-2 (scFv)
scFv: B10 scFv with A238H, T239S, W241S
notes: as for B10
B13: C6-B47D1 (scFv)
scFv: B5 scFv with T108S, M116L, Y117H, P118V
notes: C6MH3-B47 with the library D residues of C6MH3-D1
B14: C6ML3-11 (scFv)
scFv: B10 scFv with A238Y, T239A
notes: as for B10
B15: C6ML3-6 (scFv)
scFv: B10 scFv with A235S, A238Y, T239S, W241S
notes: as for B10
B16: C6ML3-19 (scFv)
scFv: B10 scFv with A235S, A238R, T239P
notes: as for B10
B17: C6-B47D2 (scFv)
scFv: B5 scFv with T108S, M116L, Y117G, P118V
notes: C6MH3-B47 with the library D residues of C6MH3-D2
B18: C6ML3-8 (scFv)
scFv: B10 scFv with A238H, T239L, L240R
notes: as for B10
B19: C6-B47D5 (scFv)
scFv: B5 scFv with T108S, Y117Q, P118M
notes: C6MH3-B47 with the library D residues of C6MH3-D5
B20: C6ML3-1 (scFv)
scFv: B10 scFv with A238Y, T239S
notes: as for B10
B21: C6-B47D6 (scFv)
scFv: B5 scFv with T108S
notes: C6MH3-B47 with the library D residues of C6MH3-D6
B22: C6ML3-23 (scFv)
scFv: B10 scFv with A235S, A238H, T239S
notes: as for B10
B23: C6ML3-29 (scFv)
scFv: B10 scFv with A238G
notes: as for B10
B24: C6ML3-12 (scFv)
scFv: B10 scFv with A238Y, T239S, L240R, W241S
notes: as for B10
B25: C6ML3-10 (scFv)
scFv: B10 scFv with D237E, A238D, T239P, L240W, W241Y
notes: as for B10
B26: C6-B47D3 (scFv)
scFv: B5 scFv with T108S, M116L, Y117D, P118N
notes: C6MH3-B47 with the library D residues of C6MH3-D3
B27: C6ML3-15 (scFv)
scFv: B10 scFv with A238R, T239P
notes: as for B10
B28: C6ML3-3 (scFv)
scFv: B10 scFv with A235T, A238Y, T239A, W241S
notes: as for B10
B29: C6ML3-14 (scFv)
scFv: B10 scFv with A238D, T239P
notes: as for B10
B30: C6ML3-4 (scFv)
scFv: B10 scFv with A235S, D237E, A238Y, T239S
notes: as for B10
B31: C6-B1L1 (scFv, part only; not given: linker and VL, part only)
scFv, part: QVQLLQSGAELKKPGSLKISCKGSGYSFTSWIAWVRQMPGKGLEYGLIYPGDSDTKYSPSQGQVTISVDKSVSTALQWSSLKPSDSAVYFARHDVGYCHDVGYCTDRTCAKWPYFQHTVS
B32: C6-B47L1 (scFv, part only; not given: linker and VL, part only)
scFv, part: B31 scFv, part with T108S
B33: C6VLF (scFv)
chain: QVQLLQSGAELKKPGESLKISCKGSGYSFTSYWIAWVRQMPGKGLEYMGLIYPGDSDTKYSPSFQGQVTISVDKSVSTAYLQWSSLKPSDSAVYFCARHDVGYCSSSNCAKWPEYFQHWGQGTLVTVSSGGGGSGGGGSGGGGSQSVLTQPPSMSAAPGQKVTISCSGSSSNIGNNYVSWYQQFPGTAPKLLIHDNNKRPSGIPDRISGSKSGTSASLAISGLQSDDEADYYCAAWDDSLNGWVFGGGTKLTVLG

How the values were obtained:
[1] = target: T1, c-erbB-2 ECD with a Ser-Gly-His6 C-terminal fusion (UniProt P04626 23-652); test: from SPR (BIAcore) Kd values
T1 construct: extracellular domain; expressed from CHO cells, IMAC purified; coupled to a CM5 chip, adsorbed to polystyrene, or biotinylated and captured on avidin; also called c-erbB-2 extracellular domain; biotinylated c-erbB-2 ECD

[2] = target: T2, c-erbB-2 expressed on cells (SK-OV-3, SK-BR-3) (UniProt P04626 23-1255, limits assumed); test: Scatchard after radioiodination, SK-OV-3 cells
T2 construct: whole, on cells; also called native c-erbB-2 expressed on cells

[3] = target: T1, c-erbB-2 ECD with a Ser-Gly-His6 …; test: competition ELISA: sFv preincubated with soluble ECD (0-100 nM), free sFv read on immobilized ECD
[4] = target: T1, c-erbB-2 ECD with a Ser-Gly-His6 …; test: SPR (BIAcore)
[5] = target: T1, c-erbB-2 ECD with a Ser-Gly-His6 …; test: SPR (BIAcore); remark: listed apart in the source
[6] = target: c-erbB-2 ECD with a Ser-Gly-His6 C-terminal fusion (UniProt P04626); test: SPR (BIAcore)
[7] = target: c-erbB-2 ECD with a Ser-Gly-His6 C-terminal fusion (UniProt P04626); test: from SPR (BIAcore) Kd values

Row | Binder | ΔΔGI [1] [kcal/mol] | kon [5] [M⁻¹ s⁻¹] | further results
1 | B1 | 0.42 |  | 
2 | B2 | -0.18 |  | 
3 | B3 |  |  | Kd [2]: 71 nM; IC50 [3]: 2.8 nM
4 | B4 |  |  | Kd [2]: 26 nM; IC50 [3]: 5.8 nM
5 | B5 | -0.16 |  | 
6 | B6 | -0.53 |  | fold lower Kd than wt C6.5 [4]: 1230 fold
7 | B7 | -0.61 |  | 
8 | B8 | -0.4 |  | 
9 | B9 | -0.07 |  | 
10 | B10 |  | 870000 | 
11 | B11 |  | 650000 | fold increase in affinity vs wild-type sFv (C6.5) [4]: 6 fold
12 | B12 |  | 710000 | 
13 | B13 | -0.11 |  | 
14 | B14 |  | 610000 | 
15 | B15 |  | 590000 | 
16 | B16 |  | 670000 | 
17 | B17 | 0.62 |  | 

Row | Binder | ΔΔGI [1] [kcal/mol] | kon [5] [M⁻¹ s⁻¹] | further results
18 | B18 |  | 650000 | 
19 | B19 | -0.01 |  | 
20 | B20 |  | 300000 | 
21 | B21 | 0.17 |  | 
22 | B22 |  | 670000 | 
23 | B23 |  | 1.29e+06 | 
24 | B24 |  | 450000 | 
25 | B25 |  | 610000 | 
26 | B26 | 0.29 |  | 
27 | B27 |  | 590000 | koff [5]: 0.0013 s⁻¹
28 | B28 |  | 460000 | 
29 | B29 |  | 770000 | 
30 | B30 |  | 400000 | 
31 | B31 |  |  | Kd [6]: 0.63 nM; Kd (C6.5)/Kd (mut) [6]: 25; Kd (parent)/Kd (mut) [6]: 0.19; koff [6]: 0.00024 s⁻¹; kon [6]: 380000 M⁻¹ s⁻¹; ΔΔGI [7]: 0.43 kcal/mol
32 | B32 |  |  | Kd [6]: 0.6 nM; Kd (C6.5)/Kd (mut) [6]: 27; Kd (parent)/Kd (mut) [6]: 0.18; koff [6]: 0.00018 s⁻¹; kon [6]: 300000 M⁻¹ s⁻¹; ΔΔGI [7]: 0.45 kcal/mol
33 | B33 |  |  | Kd [2]: 79 nM; IC50 [3]: 7.5 nM

From patent US20060287509A1 (University of California, published 2006)
